This experiment deals with recombinant soluble HEK4 binding protein purified from CHO/HL6 cell-conditioned medium (human) (UniProt P52803). Briefly: BIAcore competition: soluble receptor extracellular domain preincubated with 0.250 µg/ml HEK4 BP, binding to immobilized HEK4 receptor.
UniProt P52803, sequence (P52803 20-198 limits assumed, form in doubt): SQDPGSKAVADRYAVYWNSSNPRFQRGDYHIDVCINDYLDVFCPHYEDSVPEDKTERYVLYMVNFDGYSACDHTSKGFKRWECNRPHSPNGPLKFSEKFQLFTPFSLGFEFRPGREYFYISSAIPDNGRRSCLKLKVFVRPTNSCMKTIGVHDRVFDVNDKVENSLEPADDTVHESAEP
As to “HEK4 receptor extracellular domain (HEK4-X), produced in CHO cells (from UniProt P29320 21-541)”, the IC50 came to 0.55 mg/L.
Turning to “HEK8 soluble receptor (purified extracellular domain) (from UniProt P54764 20-547)”, the IC50 came out at 10.5 mg/L.
Turning to “ECK soluble receptor (purified extracellular domain) (from UniProt P29317 24-537)”, the IC50 is 5 mg/L.

These data come from US20050106674A1.
